This note sets out measurements from the RNAGym collection of RNA variant scans (doi:10.7554/elife.90254).

The chains are these.
B1: OR4K15 (parent)
chain: GUUAACGGUCAUAGGCCAUGGAAACUAGGAGCACCAUUUCGCUGCCAGUGAAGAAAUGAACAAAGAAAAUCUGGGCCAGGCAGGCAUCAAAAGAAAUAGUCUUGCGCUCAACCAGAAAGUCUGUAAUCAUUUUAAGGGUA

The variants in this data set derive from B1. As to the kind of experiment: self-cleavage, relative activity (ratio to wild type); higher = more cleavage; in vitro, sequencing; the parent is a self-cleaving ribozyme.
In the case of U102A C107U, the self-cleavage amounted to 0.01.

As for A95G A96C, the self-cleavage is 0.77.

In the case of A95G A96G, the self-cleavage amounted to 1.25.

As to U97A A118G, the self-cleavage came out at 1.01.

On to U102C C107G, for which the self-cleavage was 0.01.

As for A98G A125U, the self-cleavage was 0.84.

Take U97C U100C: the self-cleavage was 2.15.

For G99U U103C, the self-cleavage came out at 0.15.

With U100C U124A, the self-cleavage was determined as 2.17.

In the case of A96U A111G, the self-cleavage turned out to be 0.04.

As for A96U G99A, the self-cleavage came out at 0.44.

For the variant U100C U130A, the self-cleavage was determined as 2.16.

Consider U100C A129G, for which the self-cleavage is 2.22.

Consider U100C A129C, for which the self-cleavage was 1.8.

In the case of U100C U132G, the self-cleavage was 2.82.

For the variant U100C U132A, the self-cleavage worked out at 1.03.

Regarding U97C A126G, the self-cleavage was determined as 1.22.

With A98U U120C, the self-cleavage amounted to 1.65.

As to A98G A114G, the self-cleavage was determined as 0.15.

Regarding A95G U131C, the self-cleavage was found to be 1.46.

Consider A95G U108C, for which the self-cleavage stood at 0.01.

Consider A98U U100C, for which the self-cleavage was 2.47.

For A95G A98G, the self-cleavage was found to be 1.49.

With U103C A110U, the self-cleavage turned out to be 0.79.

As to U103C A110G, the self-cleavage turned out to be 0.15.

Turning to U97A U122C, the self-cleavage was determined as 1.83.

Take U102A A110G: the self-cleavage is 0.1.

U102C G138A: the self-cleavage came out at 1.82.

As to G104U A117G, the self-cleavage was determined as 0.02.

As to U97C U127A, the self-cleavage stood at 0.81.

U97C U127C: the self-cleavage turned out to be 1.25.

U103C U131C: the self-cleavage worked out at 0.49.

Regarding A98C U127C, the self-cleavage is 1.94.

For the variant A95G U132C, the self-cleavage came to 2.35.

As for U103C G104U, the self-cleavage came to 0.03.

As to A96C A118U, the self-cleavage came out at 0.32.

For the variant U100C U108A, the self-cleavage turned out to be 0.02.

Regarding U103C A118G, the self-cleavage is 0.22.

Regarding U102G G106C, the self-cleavage was determined as 0.01.

With U100A A114U, the self-cleavage came to 0.01.

As to G104A A125G, the self-cleavage turned out to be 0.01.

As to A96U U131C, the self-cleavage came to 2.32.

In the case of U102C A140G, the self-cleavage came out at 2.39.

Consider C101U C105A, for which the self-cleavage stood at 0.01.

As to A98U A116U, the self-cleavage came out at 0.97.

A95G U122A: the self-cleavage worked out at 1.78.

Regarding A95G U122C, the self-cleavage turned out to be 1.2.

Turning to A95C U103C, the self-cleavage stood at 1.28.

As for A96G U120C, the self-cleavage stood at 1.14.

Consider A96G U120A, for which the self-cleavage worked out at 2.74.

As for U102A A118G, the self-cleavage is 0.84.

As for U100A U139A, the self-cleavage came out at 1.29.

Consider U103C A135G, for which the self-cleavage came out at 0.95.

For the variant A98U A110U, the self-cleavage is 1.67.

For A98U A110G, the self-cleavage came out at 0.17.

Turning to U102G A117G, the self-cleavage turned out to be 0.37.

For A96C A140U, the self-cleavage amounted to 1.14.

For A95U U103A, the self-cleavage is 0.6.

Turning to A96G A117G, the self-cleavage stood at 2.13.

As to U100C U102A, the self-cleavage was 2.36.

With U102A U108C, the self-cleavage worked out at 0.

For A98G U102C, the self-cleavage is 2.44.

Turning to U97G U132C, the self-cleavage came to 1.54.

Turning to A96U U127A, the self-cleavage came to 2.6.

U103C G136U: the self-cleavage amounted to 1.12.

With U97C U122A, the self-cleavage was found to be 1.65.

In the case of U97C U122G, the self-cleavage was found to be 2.57.

As for U100C A135U, the self-cleavage turned out to be 2.37.

On to U100C A135G, for which the self-cleavage was 1.74.

With U102C A125G, the self-cleavage came out at 1.5.

On to A95G A140G, for which the self-cleavage worked out at 1.73.

A95G A140U: the self-cleavage stood at 2.09.

Regarding U102G A116G, the self-cleavage was 0.62.

Consider U102A U122C, for which the self-cleavage came to 0.55.

In the case of A95U A118U, the self-cleavage came out at 0.6.

Take A95U A118G: the self-cleavage is 1.41.

For the variant C101A A114G, the self-cleavage was 0.02.

U102G U133A: the self-cleavage amounted to 1.45.

Turning to A96G A116G, the self-cleavage worked out at 0.98.

U100A G123A: the self-cleavage is 0.47.

As to U100C A117G, the self-cleavage was 2.56.

With U100C A117U, the self-cleavage came to 1.45.

With A96G A126G, the self-cleavage was 1.01.

For A95G, the self-cleavage came out at 1.85.

In the case of A95U, the self-cleavage was determined as 1.65.

In the case of A95G A125U, the self-cleavage turned out to be 0.96.

Regarding A98G A135C, the self-cleavage was 0.44.

As for A96U U108C, the self-cleavage was 0.

As to A95G U124C, the self-cleavage amounted to 1.85.

With A95G U124A, the self-cleavage was determined as 0.8.

As for A95G C109A, the self-cleavage was 0.78.

As to G99A U103C, the self-cleavage was 0.07.

Take U97C A116G: the self-cleavage is 0.77.

Turning to U97C A116U, the self-cleavage was 0.11.

On to A96G C107A, for which the self-cleavage came out at 0.01.

On to U102C U127C, for which the self-cleavage was 1.56.

Turning to A96U U122C, the self-cleavage came out at 1.54.

As to U103A G138A, the self-cleavage was 0.68.

For the variant A96G A114U, the self-cleavage came to 0.07.

As for U100C U127G, the self-cleavage turned out to be 2.43.

On to U102A A135G, for which the self-cleavage was found to be 1.02.

With A95G G123A, the self-cleavage is 1.22.

On to A95G U127C, for which the self-cleavage was found to be 1.56.

Turning to U102C U130C, the self-cleavage came to 1.64.

As for U102A U120A, the self-cleavage was 1.01.

Consider U102A U120C, for which the self-cleavage turned out to be 0.37.

Take U97C C113A: the self-cleavage turned out to be 0.04.

On to U102A A116G, for which the self-cleavage turned out to be 0.18.

Take A96G A135G: the self-cleavage stood at 1.91.

Consider A96G A135U, for which the self-cleavage came out at 2.17.

Consider A95C U124C, for which the self-cleavage is 0.32.

With G99A G136A, the self-cleavage amounted to 0.91.

Regarding U100C A126U, the self-cleavage turned out to be 0.32.

On to G104A A140G, for which the self-cleavage worked out at 0.09.

For U102C U139A, the self-cleavage is 2.11.

In the case of A96C A111G, the self-cleavage amounted to 0.03.

With C101G U120C, the self-cleavage stood at 0.03.

With A96G U132A, the self-cleavage worked out at 1.37.

Regarding C105U A111U, the self-cleavage was 0.01.

On to U103C U132A, for which the self-cleavage amounted to 1.03.

Regarding C101A A118G, the self-cleavage was 0.08.

A98U A118U: the self-cleavage turned out to be 1.62.

Take U97C A114U: the self-cleavage was found to be 0.1.

In the case of A98G G138U, the self-cleavage was 0.6.

Turning to A96C C109U, the self-cleavage worked out at 0.21.

With U102C A135C, the self-cleavage was determined as 1.02.

U102C A135U: the self-cleavage was 2.46.

For A96G A134G, the self-cleavage is 1.81.

Regarding U100C U103C, the self-cleavage was 2.89.

Consider U102C U103C, for which the self-cleavage worked out at 0.21.

Take U103A U131C: the self-cleavage came out at 0.45.

As to A96G U131G, the self-cleavage is 0.85.

On to U102C C113A, for which the self-cleavage was 0.28.

For U102C C113U, the self-cleavage came to 0.33.

U103A U120C: the self-cleavage is 0.34.

Turning to U103A A114U, the self-cleavage stood at 0.05.

On to A96G U103G, for which the self-cleavage turned out to be 0.03.

Regarding A96G U103A, the self-cleavage was determined as 1.08.

Turning to A96C U122A, the self-cleavage stood at 0.42.

For A95U G104A, the self-cleavage was 0.05.

For the variant A96U A117G, the self-cleavage was determined as 1.75.

Regarding U100C A111U, the self-cleavage was 0.18.

For the variant U100C A111C, the self-cleavage was found to be 0.01.

For the variant U97C A110G, the self-cleavage was found to be 0.11.

As for U102C A126C, the self-cleavage was found to be 1.47.

For A96G U139C, the self-cleavage came out at 1.42.

Turning to A98U, the self-cleavage stood at 2.22.

Regarding A98C, the self-cleavage was 0.96.

As for A98G, the self-cleavage is 0.44.

In the case of A96G G115A, the self-cleavage stood at 0.07.

Consider G106A A126G, for which the self-cleavage was found to be 0.

As to A98U A114G, the self-cleavage was determined as 0.5.

A98U A114U: the self-cleavage was found to be 0.12.

As for C105U A135U, the self-cleavage was 0.28.

As for U97C U124C, the self-cleavage amounted to 0.17.

For the variant U103A A116U, the self-cleavage came to 0.2.

As for U103C A129G, the self-cleavage is 0.56.

Take G99U A117G: the self-cleavage is 0.36.

With U100A C105U, the self-cleavage amounted to 0.03.

Turning to U103C A111U, the self-cleavage turned out to be 0.1.

Take U103C G106A: the self-cleavage stood at 0.02.

With U97G A98G, the self-cleavage amounted to 1.98.

On to A98C U100C, for which the self-cleavage came to 2.44.

For U102A G138A, the self-cleavage was 0.55.

For A95G C105A, the self-cleavage was found to be 0.09.

U103C A125G: the self-cleavage stood at 0.69.

Turning to U103C A134U, the self-cleavage was 0.78.
